Test [1] concerns the target PN45545 TCR-CD3, strep-tagged, detergent-solubilized (SPR reagent) (humanized VelociT mouse | not stated) (UniProt P07766). The test is described as follows: SPR. Particulars: peptide-MHC.
In test [2] the target is PN45428 TCR-CD3, strep-tagged, detergent-solubilized (SPR reagent) (humanized VelociT mouse | not stated) (UniProt P07766). Kind of test: SPR. Particulars: peptide-MHC.

The results in this text go back to publication PMC10132440.

pKd: −log10 of the molar value.

What is called pKd is −log10 of the Kd, conventionally taken in molar units. A lower pKd goes with a high Kd. The substance “single-chain disulfide-stabilized MAGEA4 (230-239) pMHC (from UniProt P61769 21-119)” showed a negative logarithm of the Kd (pKd) in test [1] of 5.21.

As for “single-chain disulfide-stabilized MAGEA8 (232-241) pMHC (from UniProt P61769 21-119)”, the pKd in test [2] is 3.59; in test [1], 3.38.
